The text below walks through data of US20210122822A1 (FORTY SEVEN, published 2021).

Assay [1] deals with T1, human c-Kit-Fc fusion protein (human, UniProt P10721 26-520, limits assumed).
T1 construct: not shown: Fc part of the fusion protein
Put plainly: ELISA, coated human c-Kit-Fc, FIG. 3D, against AMG191 (members named at paragraph 118). As for the experimental part:
(§1) Antigen binding activity measurement by ELISA. 96-well plates (Nunc, Roskilde, Denmark) were coated with 1 ug/ml human c-Kit-Fc fusion protein in phosphate-buffered saline (PBS) for 16 hr at 4° C. After blocking for 1 hr with 0.4% BSA in PBS at room temperature, anti-c-Kit antibodies were added in 1/3 sequential dilutions, and incubated for 1 hr at room temperature. Plates were subsequently washed three times and incubated with HRP-conjugated goat anti-human kappa-specific antibody for 1 hr at room temperature. After washing, plates were developed with TMB. The reaction was stopped with 2M […], and OD was measured at 450 nm.
(In general: ELISA stands for enzyme-linked immunosorbent assay.)

Assay [2] deals with T1, human c-Kit-Fc fusion protein. Put plainly: ELISA, coated human c-Kit-Fc. Here is the method: as §1
Assay [3] has the same target. The assay is described as follows: ELISA, coated human c-Kit-Fc, FIG. 3C, against AMG191. Here is the method: as §1
Assay [4] shares this target. The assay is described as follows: ELISA, coated human c-Kit-Fc, against AMG191. Here is the method:
as §1

Assay [5] has the same target. The assay is described as follows: ELISA, coated human c-Kit-Fc, FIG. 2D (members named at paragraph 117). As for the experimental part:
as §1

For assay [6] the target is unchanged. Put plainly: ELISA, coated human c-Kit-Fc, FIG. 2C (members named at paragraph 117). As for the experimental part:
as §1

For assay [7] the target is unchanged. Put plainly: ELISA, coated human c-Kit-Fc; AMG191 is the reference. As for the experimental part:
as §1

Substitutions are numbered along the chain they refer to.

T1 sequence (P10721 26-520 limits assumed): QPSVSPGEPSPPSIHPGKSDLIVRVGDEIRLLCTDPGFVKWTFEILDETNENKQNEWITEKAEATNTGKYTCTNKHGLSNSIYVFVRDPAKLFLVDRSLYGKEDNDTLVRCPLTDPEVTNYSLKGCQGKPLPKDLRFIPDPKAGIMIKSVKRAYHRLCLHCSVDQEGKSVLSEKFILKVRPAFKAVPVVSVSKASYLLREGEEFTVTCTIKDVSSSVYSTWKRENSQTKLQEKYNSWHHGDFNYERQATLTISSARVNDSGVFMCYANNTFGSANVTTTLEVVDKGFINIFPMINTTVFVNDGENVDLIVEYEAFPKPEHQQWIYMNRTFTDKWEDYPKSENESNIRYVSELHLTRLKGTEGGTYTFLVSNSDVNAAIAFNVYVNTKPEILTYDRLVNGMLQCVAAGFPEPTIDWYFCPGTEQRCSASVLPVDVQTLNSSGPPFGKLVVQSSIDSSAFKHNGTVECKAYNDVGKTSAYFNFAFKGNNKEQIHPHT

B1: NF11 (antibody, V domains shown)
VH: EVQLLESGGGLVQPGGSLRLSCAASGFTFTSYNMHWVRQAPGKGLEWVGVIYSGNGDTSYAQKFKGRFTISADKSKNTAYLQMNSLRAEDTAVYYCARERDTRFGNWGQGTLVTVSS
VL: DIVMTQSPLSLPVTPGEPASISCRASESVDIYGQSFMHWYLQKPGQSPQLLIYLASNLESGVPDRFSGSGSGTDFTLKISRVEAEDVGVYYCQQNNEDPYTFGGGTKVEIK
Turning to B1, the binding result in assay [1] was “binds”.

B2: NF12 (antibody, V domains shown)
VH: B1 VH with A61N, K65Q
VL: B1 VL
As to B2, the binding result in assay [2] was “binds”.

B3: NF112 (antibody, human IgG1, V domains shown)
VH: B1 VH with K65Q
VL: B1 VL
In the case of B3, the binding result in assay [2] is given as “binds”.

B4: NF (antibody, V domains shown)
VH: B1 VH with A61N
VL: B1 VL with Q34N
notes: also called antibody with the new frameworks (NF)
With B4, the binding result in assay [3] is given as “binds”.

B5: AF11 (antibody, V domains shown)
VH: QVQLVQSGAEVKKPGASVKVSCKASGYTFTSYNMHWVRQAPGQGLEWMGVIYSGNGDTSYAQKFKGRVTITADKSTSTAYMELSSLRSEDTAVYYCARERDTRFGNWGQGTLVTVSS
VL: DIVMTQSPDSLAVSLGERATINCRASESVDIYGQSFMHWYQQKPGQPPKLLIYLASNLESGVPDRFSGSGSGTDFTLTISSLQAEDVAVYYCQQNNEDPYTFGGGTKVEIK
With B5, the binding result in assay [4] is on record as “binds”.

B6: HF112 (antibody, human IgG1, V domains shown)
VH: B5 VH with K65Q
VL: B1 VL
B6: the binding result in assay [2] was “binds”.

B7: AF-2-1 (antibody, V domains shown)
VH: B5 VH with N55Q, A61N
VL: B5 VL
Turning to B7, in assay [5], the binding result was “binds”.

B8: AF-3 (antibody, V domains shown)
VH: B5 VH with A61N, E99D
VL: B5 VL
As to B8, the binding result in assay [5] is reported as “binds”.

B9: AF12 (antibody, human IgG1, V domains shown)
VH: B5 VH with A61N, K65Q
VL: B5 VL
Consider B9, for which, in assay [6], the binding result is listed as “binds”.

B10: AF112 (antibody, human IgG1, V domains shown)
VH: B5 VH with K65Q
VL: B5 VL
As to B10, the binding result in assay [6] was “binds”.

B11: AMG191 (antibody, V domains shown)
VH: B5 VH with A61N
VL: B5 VL with Q34N
notes: Humanized form of HB-10716; constant region has an N to E mutation of position 297 (unglycosylated, silenced Fc); kappa light chain implied by the anti-human kappa detection
As to B11, in assay [7], the binding result is “binds”.
